The target in the test is HLA-A*02:01 (Homo sapiens, UniProt P04439, D140Y/D185E/D98H/E176V/E277Q/G131W/G231S/I119V/I121R/I166T/I218V/L300P/L318F/N151K/N90K/P208A/P217A/Q86G/Q94H/R138H/R169H/T345S). In words: MHC binding assay (UV-ligand exchange, beta2m ELISA, peptide exchange yield). The settings on record: MHC class I binding score; binding to HLA-A*02:01 ranged by peptide exchange yield (UV-ligand exchange, β2m ELISA). An excerpt:
Candidate peptides for T cell based therapies according to the present invention were further tested for their MHC binding capacity (affinity). The individual peptide-MHC complexes were produced by UV-ligand exchange, where a UV-sensitive peptide is cleaved upon UV-irradiation, and exchanged with the peptide of interest as analyzed. Only peptide candidates that can effectively bind and stabilize the peptide-receptive MHC molecules prevent dissociation of the MHC complexes. To determine the yield of the exchange reaction, an ELISA was performed based on the detection of the light chain (β2m) of stabilized MHC complexes. The assay was performed as generally described in Rodenko et al. (Rodenko et al., 2006).
96 well MAXISorp plates (NUNC) were coated over night with 2 ug/ml streptavidin in PBS at room temperature, washed 4× and blocked for 1 h at 37° C. in 2% BSA containing blocking buffer. Refolded HLA-A*02:01/MLA-001 monomers served as standards, covering the range of 15-500 ng/ml. Peptide-MHC monomers of the UV-exchange reaction were diluted 100 fold in blocking buffer. Samples were incubated for 1 h at 37° C., washed four times, incubated with 2 ug/ml HRP conjugated anti-β2m for 1 h at 37° C., washed again and detected with TMB solution that is stopped with […]. Absorption was measured at 450 nm. Candidate peptides that show a high exchange yield (preferably higher than 50%, most preferred higher than 75%) are generally preferred for a generation and production of antibodies or fragments thereof, and/or T cell receptors or fragments thereof, as they show sufficient avidity to the MHC molecules and prevent dissociation of the MHC complexes.
Take “178 (YLFREPATI; listed as Homo sapiens) [compound 178]”: the Peptide exchange result is on record as “″++″ (≥20% = ++)”.

For “89 (SLIEYEFRV; listed as Homo sapiens) [compound 89]”, the Peptide exchange result was “″+++″ (≥50 = +++)”.

Regarding “56 (VLFTDEGVPKFL; listed as Homo sapiens) [compound 56]”, the Peptide exchange result is reported as “″++″ (≥20% = ++)”.

On to “183 (TLQEVVTGV; listed as Homo sapiens) [compound 183]”, for which the Peptide exchange entry is given as “″+++″ (≥50 = +++)”.

Take “146 (ALSDETWGL; listed as Homo sapiens) [compound 146]”: the Peptide exchange entry is reported as “″++″ (≥20% = ++)”.

Take “101 (GLSEGHTFQV; listed as Homo sapiens) [compound 101]”: the Peptide exchange entry is “″+++″ (≥50 = +++)”.

In the case of “41 (ILDDSFKLL; listed as Homo sapiens) [compound 41]”, the Peptide exchange result is “″++″ (≥20% = ++)”.

As for “186 (KMSEKILLL; listed as Homo sapiens) [compound 186]”, the Peptide exchange result was “″+++″ (≥50 = +++)”.

Turning to “179 (RLLSPLSSA; listed as Homo sapiens) [compound 179]”, the Peptide exchange result is reported as “″+++″ (≥50 = +++)”.

As to “58 (AMADKMDMSL; listed as Homo sapiens) [compound 58]”, the Peptide exchange entry is “″++″ (≥20% = ++)”.

“78 (ALDPELLLL; listed as Homo sapiens) [compound 78]”: the Peptide exchange entry is given as “″++″ (≥20% = ++)”.

For the substance “61 (KLLKLFQGV; listed as Homo sapiens) [compound 61]”, the Peptide exchange entry was “″+++″ (≥50 = +++)”.

Turning to “109 (ALDGDQMEL; listed as Homo sapiens) [compound 109]”, the Peptide exchange result is “″++″ (≥20% = ++)”.

On to “30 (GLSSAYGGL; listed as Homo sapiens) [compound 30]”, for which the Peptide exchange result was “″+″ (≥10% = +)”.

In the case of “131 (KLLDVVHPA; listed as Homo sapiens) [compound 131]”, the Peptide exchange entry is given as “″++″ (≥20% = ++)”.

For the substance “40 (ALSNVIHKV; listed as Homo sapiens) [compound 40]”, the Peptide exchange result was “″++″ (≥20% = ++)”.

In the case of “93 (SLQELRLLL; listed as Homo sapiens) [compound 93]”, the Peptide exchange result was “″++++″ (≥75% = ++++)”.

For the substance “85 (ILHDINSDGVL; listed as Homo sapiens) [compound 85]”, the Peptide exchange entry is on record as “″++″ (≥20% = ++)”.

As for “57 (NLLEKENYL; listed as Homo sapiens) [compound 57]”, the Peptide exchange result is “″+++″ (≥50 = +++)”.

In the case of “113 (ILYDLQQNL; listed as Homo sapiens) [compound 113]”, the Peptide exchange entry is listed as “″++″ (≥20% = ++)”.

Consider “153 (ILFSEDSTKLFV; listed as Homo sapiens) [compound 153]”, for which the Peptide exchange entry is reported as “″+++″ (≥50 = +++)”.

In the case of “181 (NLFDLGGQYLRV; listed as Homo sapiens) [compound 181]”, the Peptide exchange entry was “″+++″ (≥50 = +++)”.

Take “163 (RLLHEVQEL; listed as Homo sapiens) [compound 163]”: the Peptide exchange result is listed as “″+++″ (≥50 = +++)”.

As to “147 (TLTELRAFL; listed as Homo sapiens) [compound 147]”, the Peptide exchange entry is listed as “″++++″ (≥75% = ++++)”.

As to “188 (FLVDGPRVQL; listed as Homo sapiens) [compound 188]”, the Peptide exchange result is reported as “″+++″ (≥50 = +++)”.

Take “68 (SILQFVHMV; listed as Homo sapiens) [compound 68]”: the Peptide exchange entry is “″+++″ (≥50 = +++)”.

For the substance “88 (KLDIKVETV; listed as Homo sapiens) [compound 88]”, the Peptide exchange entry is listed as “″++++″ (≥75% = ++++)”.

“126 (TLAKYLMEL; listed as Homo sapiens) [compound 126]”: the Peptide exchange entry is “″+++″ (≥50 = +++)”.

Regarding “105 (YALDLSTFL; listed as Homo sapiens) [compound 105]”, the Peptide exchange entry is on record as “″+++″ (≥50 = +++)”.

As for “184 (SLLDENNVSSYL; listed as Homo sapiens) [compound 184]”, the Peptide exchange entry is given as “″+++″ (≥50 = +++)”.

Turning to “99 (KLLEVDLDTV; listed as Homo sapiens) [compound 99]”, the Peptide exchange entry was “″+++″ (≥50 = +++)”.

“140 (LLNEILEQV; listed as Homo sapiens) [compound 140]”: the Peptide exchange result was “″+++″ (≥50 = +++)”.

With “48 (FLDASDPAL; listed as Homo sapiens) [compound 48]”, the Peptide exchange entry is “″++″ (≥20% = ++)”.

On to “44 (SLESKLTSV; listed as Homo sapiens) [compound 44]”, for which the Peptide exchange result is “″+++″ (≥50 = +++)”.

On to “77 (SLLKRDFGA; listed as Homo sapiens) [compound 77]”, for which the Peptide exchange result was “″++″ (≥20% = ++)”.

In the case of “92 (WIDDTSAFV; listed as Homo sapiens) [compound 92]”, the Peptide exchange entry is given as “″+++″ (≥50 = +++)”.

Consider “171 (RLQETEGMVAV; listed as Homo sapiens) [compound 171]”, for which the Peptide exchange result is “″++″ (≥20% = ++)”.

For “148 (RLLENMTEVV; listed as Homo sapiens) [compound 148]”, the Peptide exchange result is recorded as “″+++″ (≥50 = +++)”.

With “157 (SLIERDLKL; listed as Homo sapiens) [compound 157]”, the Peptide exchange result is on record as “″+++″ (≥50 = +++)”.

“190 (AMAEMVLQV; listed as Homo sapiens) [compound 190]”: the Peptide exchange entry is given as “″+++″ (≥50 = +++)”.

Regarding “159 (VLVDDDGIKVV; listed as Homo sapiens) [compound 159]”, the Peptide exchange result is on record as “″++″ (≥20% = ++)”.

For the substance “170 (ALAGGITMV; listed as Homo sapiens) [compound 170]”, the Peptide exchange entry was “″+++″ (≥50 = +++)”.

As for “164 (KMLDEILLQL; listed as Homo sapiens) [compound 164]”, the Peptide exchange result is “″++++″ (≥75% = ++++)”.

In the case of “82 (QLYEEPDTKL; listed as Homo sapiens) [compound 82]”, the Peptide exchange entry is “″++″ (≥20% = ++)”.

For “74 (YLMGFLHAV; listed as Homo sapiens) [compound 74]”, the Peptide exchange result was “″+++″ (≥50 = +++)”.

For “152 (KLLAVIHEL; listed as Homo sapiens) [compound 152]”, the Peptide exchange result was “″++″ (≥20% = ++)”.

In the case of “23 (FLDANGHFV; listed as Homo sapiens) [compound 23]”, the Peptide exchange result is “″+++″ (≥50 = +++)”.

Regarding “154 (KLPSETIFVGC; listed as Homo sapiens) [compound 154]”, the Peptide exchange result was “″+++″ (≥50 = +++)”.

In the case of “27 (LLADEDSSYL; listed as Homo sapiens) [compound 27]”, the Peptide exchange result is on record as “″++″ (≥20% = ++)”.

For the substance “172 (LLLDTVTMQV; listed as Homo sapiens) [compound 172]”, the Peptide exchange entry is “″+++″ (≥50 = +++)”.

Turning to “117 (TLQPVDNSTISL; listed as Homo sapiens) [compound 117]”, the Peptide exchange entry was “″++″ (≥20% = ++)”.

With “128 (MLDDRAYLV; listed as Homo sapiens) [compound 128]”, the Peptide exchange entry is on record as “″++″ (≥20% = ++)”.

In the case of “54 (ALLNGEYLLAA; listed as Homo sapiens) [compound 54]”, the Peptide exchange result is listed as “″+++″ (≥50 = +++)”.

In the case of “80 (QVDEVVDIMRV; listed as Homo sapiens) [compound 80]”, the Peptide exchange result is “″++″ (≥20% = ++)”.

Take “73 (YLFDIAVSM; listed as Homo sapiens) [compound 73]”: the Peptide exchange entry is listed as “″+++″ (≥50 = +++)”.

“130 (GLGGSQLIDTHL; listed as Homo sapiens) [compound 130]”: the Peptide exchange result is recorded as “″++″ (≥20% = ++)”.

Take “174 (ILLDDNMQIRL; listed as Homo sapiens) [compound 174]”: the Peptide exchange entry is “″++++″ (≥75% = ++++)”.

As to “29 (QMLDVAIRV; listed as Homo sapiens) [compound 29]”, the Peptide exchange result is “″+++″ (≥50 = +++)”.

With “185 (VLYTGVVRV; listed as Homo sapiens) [compound 185]”, the Peptide exchange result is listed as “″+++″ (≥50 = +++)”.

As to “28 (ALTEIQEFI; listed as Homo sapiens) [compound 28]”, the Peptide exchange entry is given as “″++++″ (≥75% = ++++)”.

With “162 (KLMDYIDEL; listed as Homo sapiens) [compound 162]”, the Peptide exchange result is recorded as “″+++″ (≥50 = +++)”.

For “167 (SVIDHIHLISV; listed as Homo sapiens) [compound 167]”, the Peptide exchange entry is “″+++″ (≥50 = +++)”.

As to “53 (FLLGSEIKL; listed as Homo sapiens) [compound 53]”, the Peptide exchange entry is “″+++″ (≥50 = +++)”.

In the case of “33 (ALWEKNTHL; listed as Homo sapiens) [compound 33]”, the Peptide exchange result was “″+++″ (≥50 = +++)”.

“66 (GLDDGPDFL; listed as Homo sapiens) [compound 66]”: the Peptide exchange entry was “″++″ (≥20% = ++)”.
